Source: patent US20240262917A1 (Dana-Farber, published 2024)
Substitutions are numbered along the chain they refer to.

B1: Monoclonal anti-ALK antibody 7F7 (antibody, IgG1, V domains shown)
VH: QVQLQQSGAELVRPGASVTLSCKASGYTFTDYEIHWMKQTPVHGLEWIGTIDPETGGTAYNQKFKGKAILTADKSSSTAYMELRSLTSEDSAVYYCTRCYYGSSWYFDVWGTGTTVTVSS
VL: DIQMTQTTSSLSASLGDRVTISCSASQGISNYLNWYQQKPDGTVKLLIYYTSSLHSGVPSRFSGSGSGTDYSLTISNLELEDIATYYCQQYSKVPRTFGGGTKLEIKR
notes: also called Ab 7F7
B2: Monoclonal anti-ALK antibody 5H3 (antibody, IgG1, V domains shown)
VH: QVQLQQSGAELVRPGASVTLSCKASGYTFTDYEMHWVKQTPVHGLEWIGAIDPETGGSAYNQKFKAKAILTADRSSSTAYMELRSLTSEDSAVYYCTRTRYYGSSPAMDYWGQGTSVTVSS
VL: B1 VL with S30G, L80P, V94L, R96Y
notes: The variable part as printed looks identical to that of 8G7; also called Ab 5H3
B3: Mouse monoclonal anti-ALK 8G7 (antibody, IgG1, V domains shown)
VH: B2 VH
VL: DIQMTQTTSSLSASLGDRVTISCSASQGIGNYLNWYQQKPDGTVKLLIYYTSSLHSGVPSRFSGSGSGTDYSLTISNLEPEDIATYYCQQYSKLPYTFGGGTKLEIK
notes: constant regions are not; also called Ab 8G7; 8G7 N-terminal anti-ALK antibody

Tests used:
[1] = biological target: T1, Human ALK F1174L (human, UniProt Q9UM73 19-1620); assay: immunofluorescence on SHEP cells expressing ALK F1174L, 1:100 dilution
T1 construct: Expressed in SHEP neuroblastoma cells (IF) and in tumours of the ALK F1174L/MYCN transgenic mouse (IHC)

[2] = biological target: T2, Shed ALK extracellular domain fragment (ALK 1-654) (human, UniProt Q9UM73 19-654); assay: sandwich ELISA, 7F7 capture, 8G7 detection, ALK-ECD protein as the varied antigen
T2 construct: Fragment released into conditioned media or serum by cleavage at Asn654-Leu655; also called SF; secreted extracellular fragment
Description: (B) ELISA of the shed ALK ECD protein in sera from patients with neuroblastoma.

[3] = biological target: T3, Irrel-hFc; assay: ELISA of hybridoma supernatant on a plate coated with an irrelevant hFc protein, detection with anti-mouse kappa light chain antibody; control row Co 0.062
T3 construct: also called irrelevant hFc protein
Method: (§1) HAT-selected fused cells were distributed in 96 well plates and the hybridoma supernatants were subjected to several rounds of screening. Initial screening was performed using ELISA against human Fc to test antigen binding with the ALK ECD-human Fc fusion protein. […] These were rescreened by FACS against Ba/F3 and neuroblastoma (NB) cells expressing ALK. […] (A) Binding of hybridoma supernatants using an antigen-binding capture assay. The plate was coated with goat-anti-mouse IgG Fc, incubated with hybridoma supernatants, followed by ALK-HRP and visualized using an HRP substrate. (B) Binding of selected hybridoma supernatants to a human Fc antibody using ELISA screening. Plates were coated with the ALK ECD-human Fc fusion protein (ALK-hFc) together with an irrelevant hFc protein and visualized using an anti-mouse kappa light chain antibody.

[4] = biological target: T4, Full-length human anaplastic lymphoma kinase (ALK) receptor, wild type (human, UniProt Q9UM73 19-1620); assay: western blot of NB cell lysates
T4 construct: Tested in cell lysates (western blot, IP) and on fixed cells (IF, ICC); HA- or FLAG-tagged in the co-IP dimerisation assay and FLAG-tagged and purified in the MMP-9 cleavage assay; also called WT ALK; ALK WT

[5] = biological target: T5, ALK-hFc; assay: ELISA of hybridoma supernatant on a plate coated with ALK-hFc, detection with anti-mouse kappa light chain antibody; control row Co 0.067
T5 construct: also called ALK ECD-human Fc fusion protein; ALK-ECD-hFc; not shown: Human IgG2 Fc of the vector pFUse-hIgG2-FC2, and any vector-derived junction residues
Method: as §1

[6] = biological target: T6, 140 kDa truncated membrane-bound C-terminal ALK fragment (human, UniProt Q9UM73 655-1620); assay: western blot of NB cell lysates
T6 construct: also called CTF; 140 kDa fragment

[7] = biological target: T7, ALK-LF655FY; assay: immunofluorescence on NIH3T3 cells expressing the construct
T7 construct: also called NIH3T3 ALK LF655FY; MSCV-LF655FY
T7 sequence (receptor chain, as listed by the source): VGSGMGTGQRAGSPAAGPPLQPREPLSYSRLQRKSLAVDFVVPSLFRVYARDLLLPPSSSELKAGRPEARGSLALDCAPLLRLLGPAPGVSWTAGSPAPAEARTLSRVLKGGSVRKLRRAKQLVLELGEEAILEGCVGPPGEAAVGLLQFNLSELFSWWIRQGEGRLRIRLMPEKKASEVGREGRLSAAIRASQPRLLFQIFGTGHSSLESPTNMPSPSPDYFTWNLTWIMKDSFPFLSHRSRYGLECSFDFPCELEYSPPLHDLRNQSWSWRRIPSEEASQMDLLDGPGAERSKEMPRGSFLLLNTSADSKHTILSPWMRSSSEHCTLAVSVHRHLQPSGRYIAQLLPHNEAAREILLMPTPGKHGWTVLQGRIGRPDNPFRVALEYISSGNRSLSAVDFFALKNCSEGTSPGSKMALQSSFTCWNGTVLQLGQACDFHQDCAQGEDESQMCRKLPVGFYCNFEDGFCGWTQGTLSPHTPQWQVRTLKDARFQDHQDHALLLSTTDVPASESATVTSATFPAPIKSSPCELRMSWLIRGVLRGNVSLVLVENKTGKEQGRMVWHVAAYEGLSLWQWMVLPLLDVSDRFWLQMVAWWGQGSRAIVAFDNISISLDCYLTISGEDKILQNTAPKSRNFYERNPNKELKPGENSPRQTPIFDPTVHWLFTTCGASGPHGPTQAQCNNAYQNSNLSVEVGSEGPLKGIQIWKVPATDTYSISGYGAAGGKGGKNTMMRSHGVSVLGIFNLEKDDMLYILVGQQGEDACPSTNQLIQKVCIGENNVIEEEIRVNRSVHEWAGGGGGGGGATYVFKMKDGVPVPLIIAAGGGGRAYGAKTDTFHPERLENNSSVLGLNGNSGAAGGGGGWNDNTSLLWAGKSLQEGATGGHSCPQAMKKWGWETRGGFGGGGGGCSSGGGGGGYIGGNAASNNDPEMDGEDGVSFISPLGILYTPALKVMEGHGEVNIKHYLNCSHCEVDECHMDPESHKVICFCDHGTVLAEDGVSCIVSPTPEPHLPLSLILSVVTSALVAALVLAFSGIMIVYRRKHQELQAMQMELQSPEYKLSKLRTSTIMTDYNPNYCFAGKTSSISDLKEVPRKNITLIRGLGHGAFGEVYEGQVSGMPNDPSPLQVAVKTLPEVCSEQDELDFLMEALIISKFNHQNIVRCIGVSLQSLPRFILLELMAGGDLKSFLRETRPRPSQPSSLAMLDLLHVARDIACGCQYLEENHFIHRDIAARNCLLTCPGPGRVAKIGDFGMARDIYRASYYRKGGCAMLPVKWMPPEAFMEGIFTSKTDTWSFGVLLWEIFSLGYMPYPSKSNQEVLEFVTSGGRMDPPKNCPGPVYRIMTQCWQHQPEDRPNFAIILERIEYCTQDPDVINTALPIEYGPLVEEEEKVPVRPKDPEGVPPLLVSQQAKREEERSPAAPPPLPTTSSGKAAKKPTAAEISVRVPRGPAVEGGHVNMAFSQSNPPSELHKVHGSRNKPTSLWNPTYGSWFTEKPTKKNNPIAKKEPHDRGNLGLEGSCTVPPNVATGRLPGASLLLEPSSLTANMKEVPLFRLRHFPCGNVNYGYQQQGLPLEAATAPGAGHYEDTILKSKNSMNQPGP
Method: A 1:100 antibody dilution was used.
Cells (0.5×10⁶ per well) were seeded into six-well plates and grown on glass coverslips for 24 hr. before fixation in 4% paraformaldehyde in PBS for 15 min at room temperature (RT), washed with PBS, permeabilized in 0.1% Triton X-100, and blocked with PBS containing 0.05% Tween-20 and 5% BSA for 1 hr. to block nonspecific binding. […] Images were collected on a Zeiss AXIO Imager Z1 fluorescence microscope. […] After 24 hours, cells were washed once in PBS, fixed in 4% paraformaldehyde in PBS, washed, permeabilized in 0.1% Triton X-100, and blocked in PBS containing 10% horse serum. […] The next day, cells were washed, incubated in goat anti-rabbit IgG secondary antibody (1:1000) for 1 hr. washed, and incubated in Streptavidin-TexasRed (1:1000) for 1 hr. Cover slips were mounted onto slides using mounting medium containing DAPI. Images were collected on a Zeiss AXIO Imager Z1 fluorescence microscope.

T5 sequence (chain, as listed by the source limits assumed): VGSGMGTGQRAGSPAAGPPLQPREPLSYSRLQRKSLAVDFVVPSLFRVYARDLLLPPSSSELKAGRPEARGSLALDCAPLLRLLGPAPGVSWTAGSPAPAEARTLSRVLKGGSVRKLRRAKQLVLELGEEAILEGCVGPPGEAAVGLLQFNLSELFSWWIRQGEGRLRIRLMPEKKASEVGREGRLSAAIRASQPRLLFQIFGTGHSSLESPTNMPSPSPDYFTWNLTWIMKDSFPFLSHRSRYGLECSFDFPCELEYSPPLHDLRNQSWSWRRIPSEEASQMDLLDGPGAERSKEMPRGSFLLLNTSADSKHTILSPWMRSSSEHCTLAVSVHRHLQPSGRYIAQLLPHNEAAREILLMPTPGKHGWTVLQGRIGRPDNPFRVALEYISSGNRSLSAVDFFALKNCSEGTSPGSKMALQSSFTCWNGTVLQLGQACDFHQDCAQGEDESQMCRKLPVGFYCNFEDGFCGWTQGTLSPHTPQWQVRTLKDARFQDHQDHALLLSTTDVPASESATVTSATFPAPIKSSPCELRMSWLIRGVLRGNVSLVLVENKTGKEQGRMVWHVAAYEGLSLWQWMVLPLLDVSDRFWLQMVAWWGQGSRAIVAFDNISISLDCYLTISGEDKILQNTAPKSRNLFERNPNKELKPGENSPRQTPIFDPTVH
T2 sequence (Q9UM73 19-654): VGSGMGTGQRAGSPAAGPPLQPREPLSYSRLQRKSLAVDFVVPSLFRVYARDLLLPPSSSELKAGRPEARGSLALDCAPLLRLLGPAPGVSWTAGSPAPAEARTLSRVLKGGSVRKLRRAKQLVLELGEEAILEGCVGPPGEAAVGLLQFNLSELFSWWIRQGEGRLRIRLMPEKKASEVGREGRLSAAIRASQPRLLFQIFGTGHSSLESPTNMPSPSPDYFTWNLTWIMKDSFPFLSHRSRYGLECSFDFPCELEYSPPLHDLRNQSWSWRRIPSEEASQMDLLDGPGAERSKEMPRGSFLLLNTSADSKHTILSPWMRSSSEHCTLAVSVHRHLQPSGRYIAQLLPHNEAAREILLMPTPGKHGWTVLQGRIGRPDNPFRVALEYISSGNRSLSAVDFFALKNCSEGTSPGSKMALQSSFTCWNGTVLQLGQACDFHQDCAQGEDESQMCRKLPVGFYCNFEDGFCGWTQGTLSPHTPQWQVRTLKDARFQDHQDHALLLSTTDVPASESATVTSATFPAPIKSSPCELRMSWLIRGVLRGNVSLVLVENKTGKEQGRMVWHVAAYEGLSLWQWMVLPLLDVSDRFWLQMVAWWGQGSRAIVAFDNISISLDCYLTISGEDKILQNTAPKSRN
T1 sequence (Q9UM73 19-1620 F1174L limits assumed): as the sequence (receptor chain, as listed by the source) above, with F637L, Y638F, F1156L counted along it
T6 sequence (Q9UM73 655-1620): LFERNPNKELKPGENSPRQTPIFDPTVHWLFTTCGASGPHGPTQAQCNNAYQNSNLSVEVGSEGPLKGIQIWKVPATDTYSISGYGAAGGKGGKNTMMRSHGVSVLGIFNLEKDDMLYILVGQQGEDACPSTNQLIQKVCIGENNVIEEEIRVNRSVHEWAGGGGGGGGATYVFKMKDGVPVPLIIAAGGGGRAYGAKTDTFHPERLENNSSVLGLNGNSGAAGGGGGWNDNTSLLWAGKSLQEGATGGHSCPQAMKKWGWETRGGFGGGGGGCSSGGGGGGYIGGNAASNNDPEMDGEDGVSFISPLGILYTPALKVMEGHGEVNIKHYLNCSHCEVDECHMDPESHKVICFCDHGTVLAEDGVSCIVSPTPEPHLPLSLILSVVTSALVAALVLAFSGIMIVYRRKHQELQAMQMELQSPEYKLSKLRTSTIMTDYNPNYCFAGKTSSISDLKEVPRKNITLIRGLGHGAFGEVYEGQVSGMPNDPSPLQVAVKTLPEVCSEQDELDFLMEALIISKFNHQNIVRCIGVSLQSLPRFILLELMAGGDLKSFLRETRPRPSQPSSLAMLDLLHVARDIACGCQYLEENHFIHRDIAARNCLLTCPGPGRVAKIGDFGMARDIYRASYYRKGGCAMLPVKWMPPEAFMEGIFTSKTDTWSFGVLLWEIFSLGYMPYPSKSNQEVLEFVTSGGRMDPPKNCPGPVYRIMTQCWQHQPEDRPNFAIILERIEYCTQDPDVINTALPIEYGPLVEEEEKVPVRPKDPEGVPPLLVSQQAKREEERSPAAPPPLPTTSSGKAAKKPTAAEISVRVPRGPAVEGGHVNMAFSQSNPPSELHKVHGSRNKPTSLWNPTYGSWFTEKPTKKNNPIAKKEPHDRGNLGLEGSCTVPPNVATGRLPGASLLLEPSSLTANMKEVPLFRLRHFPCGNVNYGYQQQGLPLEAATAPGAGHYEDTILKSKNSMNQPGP
T4 sequence (Q9UM73 19-1620 limits assumed): as the sequence (receptor chain, as listed by the source) above, with F637L, Y638F counted along it

Binder	binding result [1]	binding result [2]	ELISA reading (name not given) [3]	binding result [4]	ELISA reading (name not given) [5]	binding result [6]	binding result [7]
B1	binds	binds	0.063	binds	0.872		
B2			0.064		1.01		
B3			0.064		0.56	no binding	binds
